Source: the supplement of paper PMC10724198
± gives the standard deviation of the averaged measurements.

system: Saccharomyces cerevisiae; assay: protein stability index of tFT-peptide fusion (C-terminal peptide) (PSI (0-1 scale)); higher = more stable (slower turnover); conditions: genetic background: wild type; temperature: 30 C
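Note: PSI is a weighted mean of sequencing reads over stability bins, variants kept only with over 10 reads, mCherry proximal and sfGFP distal, peptide attached via GGGS linker.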

Sequence | protein stability index
SRGTTLDREQQR | 0.687 ± 0.1
SRHLALPPPRSF | 0.702 ± 0.045
SRIFLFPTPTLF | 0.651 ± 0.096
SRISQSMRFPIK | 0.691 ± 0.027
SRKLRKSLFKKS | 0.689 ± 0.045
SRLFEFFISRNV | 0.706 ± 0.013
SRLFSFLYDVTA | 0.665 ± 0.036
SRLPGLELCNRI | 0.675 ± 0.041
SRLPIVGYLTLL | 0.56 ± 0.036
SRPIPSPPPRPV | 0.6473 ± 0.002
SRPLSSPSPPPS | 0.723 ± 0.043
SRPQTTGPLPPL | 0.684 ± 0.05
SRPTAPKRQTRY | 0.6886 ± 0.0046
SRRMFCACYVLS | 0.585 ± 0.031
SRRSKDRAGVWV | 0.642 ± 0.0079
SRRVAPEPSIPP | 0.683 ± 0.018
SRSGFWCYLLFL | 0.553 ± 0.039
SRSPPPPALPPL | 0.702 ± 0.05
SRSRCGSRAVAF | 0.694 ± 0.029
SRTLPPPSPGLH | 0.714 ± 0.013
SRTWGDVVSSGT | 0.715 ± 0.0099
SRVCPLLAPSLL | 0.671 ± 0.067
SRVKMKGTIRER | 0.701 ± 0.021
SRVYRSCKNVKR | 0.7383 ± 0.0069
SRWDPLYVPWRM | 0.696 ± 0.014
SRYYMDRGTLLE | 0.625 ± 0.018

Sequence | protein stability index
SSASPVPVLPLT | 0.7 ± 0.018
SSCAWGGGLEVG | 0.683 ± 0.053
SSCGTITYLTPY | 0.745 ± 0.015
SSCSDLTKRLQQ | 0.669 ± 0.054
SSDSVPIVVGVV | 0.66 ± 0.056
SSEGTRTLIPPD | 0.7 ± 0.011
SSFLSLYSIPLP | 0.734 ± 0.044
SSGLMGFLFPMQ | 0.721 ± 0.017
SSHSFFLFRISL | 0.608 ± 0.061
SSKLFVVLPVSR | 0.599 ± 0.028
SSLPASPAPPHL | 0.702 ± 0.066
SSLPPSDQPPSP | 0.733 ± 0.071
SSLWVGFLGCVG | 0.646 ± 0.008
SSNLVDTCSPIG | 0.778 ± 0.081
SSPARASLTRPA | 0.674 ± 0.038
SSPESPPTPRSL | 0.678 ± 0.064
SSPHQVLTTRAP | 0.705 ± 0.13
SSPIIAGFPQQK | 0.676 ± 0.016
SSPLPPPPFAPL | 0.702 ± 0.022
SSPPPPPRPAPT | 0.681 ± 0.15
SSPPPRSLPSPP | 0.714 ± 0.046
SSPPWPILHSPP | 0.6952 ± 0.0014
SSPQASILIRDF | 0.778 ± 0.1
SSPSPASSPPPP | 0.677 ± 0.057
SSPVPLPPNPPA | 0.696 ± 0.038
SSRALFLPSFLP | 0.731 ± 0.04

Sequence | protein stability index
SSSAPSSVPPLG | 0.734 ± 0.016
SSSCRCSRVIGR | 0.589 ± 0.064
SSSLHPRPSPPL | 0.692 ± 0.043
SSSLPPPPHAFP | 0.672 ± 0.036
SSSRLLALSSLH | 0.694 ± 0.053
SSSSSSALSGFE | 0.704 ± 0.051
SSSVPFRRYTHD | 0.711 ± 0.017
SSSVSARAVSLP | 0.6958 ± 0.0033
SSTERLELERMS | 0.705 ± 0.021
SSYFCESWMFDL | 0.756 ± 0.023
SSYHPPPSCLLP | 0.74596 ± 0.00061
STAPQDPARPSE | 0.707 ± 0.028
STCFPSIVRLGP | 0.612 ± 0.05
STDNNLISEPKT | 0.731 ± 0.097
STDQFFLFFCVG | 0.735 ± 0.2
STFYSALRVGTR | 0.668 ± 0.019
STGAVREFRFFA | 0.643 ± 0.053
STGLDPAAGAHL | 0.657 ± 0.06
STGTASAHRVQI | 0.66 ± 0.011
STHSRLCATVPP | 0.591 ± 0.027
STPLRNLEITIA | 0.679 ± 0.15
STPPPPALPEYQ | 0.698 ± 0.023
STPSPQPYIAPT | 0.735 ± 0.06
STSACPTPRTCS | 0.6192 ± 0.001
STSHSFGVLIAS | 0.662 ± 0.0094
STSIRHGLHSVE | 0.673 ± 0.05

Sequence | protein stability index
STVRFGAPDYVH | 0.6774 ± 0.0026
SVAPRLFSPSHP | 0.6548 ± 0.0055
SVDMYTNNYKIH | 0.549 ± 0.038
SVESEWHLLLTP | 0.744 ± 0.013
SVFECKYNTLGR | 0.671 ± 0.017
SVFPSAVCSLGC | 0.6895 ± 0.005
SVGGSLFLGRRG | 0.68 ± 0.072
SVLPSLRPGSGL | 0.707 ± 0.016
SVLPSVAGIKSG | 0.593 ± 0.046
SVLTSYFFYLPP | 0.6869 ± 0.0046
SVPHRLLSVPPV | 0.6816 ± 0.0014
SVPPRPLALSLL | 0.76 ± 0.026
SVPSLPLSFPPF | 0.787 ± 0.032
SVRGWMILCTGM | 0.562 ± 0.049
SVSPPLPPSSIA | 0.673 ± 0.021
SVSPPLSFPPSR | 0.706 ± 0.022
SVTLSVSCPMLR | 0.708 ± 0.024
SVVRKDNKLHTV | 0.596 ± 0.035
SVWSSIMSVSFL | 0.6179 ± 0.00082
SVYLPLGVLQCI | 0.577 ± 0.032
SWGCSMAKVWVR | 0.585 ± 0.038
SWGEVRRRGCSV | 0.637 ± 0.0065
SWLASASGSHLI | 0.74 ± 0.015
SWSAVPHSPLMP | 0.823 ± 0.068
SWVDGGVRRCGV | 0.662 ± 0.019
SYGPSRPARVPS | 0.695 ± 0.05

Sequence | protein stability index
SYGRECCGYASA | 0.764 ± 0.081
SYLLPHTRFCFL | 0.674 ± 0.034
SYRTCIRHSNAP | 0.7655 ± 0.0074
SYRWAFPGVFSG | 0.678 ± 0.031
SYVAERVMSRMV | 0.65 ± 0.0087
SYVLLLYTGCRM | 0.585 ± 0.02
SYWARCVHTTIA | 0.669 ± 0.02
TARRAAARSSQL | 0.742 ± 0.03
TAVGRKWCGRVL | 0.695 ± 0.028
TAYPPAPFRRIN | 0.492 ± 0.057
TCHPLCSSSADR | 0.712 ± 0.039
TCLDVFACYASF | 0.666 ± 0.017
TCRYSSIVDKGS | 0.612 ± 0.008
TCSSQMSSNFRF | 0.638 ± 0.033
TDGVVRPQRQAT | 0.69 ± 0.0093
TDLPTSMHETRN | 0.695 ± 0.028
TDLSLSPAALRH | 0.717 ± 0.1
TDLSPFPALFSL | 0.766 ± 0.15
TDNVVAEKRKSK | 0.701 ± 0.18
TDPKLTRTHENE | 0.674 ± 0.014
TEGKPQVDPFDH | 0.704 ± 0.076
TEGMISSHRVIH | 0.727 ± 0.058
TEKAEVSTSSCR | 0.71 ± 0.033
TEKERSKKDELK | 0.673 ± 0.064
TEKWTRSSPMTR | 0.764 ± 0.087
TELCPPDTPTGD | 0.6921 ± 0.0016

Sequence | protein stability index
TELRRRVGYVAL | 0.663 ± 0.032
TEPHSDQPKKNA | 0.701 ± 0.14
TETFARTATRRP | 0.587 ± 0.022
TFGGLRVGFSSL | 0.684 ± 0.028
TFHCGPFRLFSC | 0.6545 ± 0.0055
TFLQRFCVGLAL | 0.654 ± 0.041
TFLVDLLSLFFL | 0.65 ± 0.046
TFRRFKVQQLGN | 0.561 ± 0.023
TGAALPRPGPAL | 0.659 ± 0.031
TGDIKYYKDKLE | 0.639 ± 0.0097
TGDTIQNTNCEM | 0.689 ± 0.027
TGFGSLWCRSSG | 0.743 ± 0.062
TGFGVQRKECGT | 0.629 ± 0.0066
TGLRLFRPLSLP | 0.776 ± 0.069
TGMRKDLVVSFW | 0.728 ± 0.051
TGSAIVPHQVPS | 0.653 ± 0.015
TGVRTVCDVGRW | 0.6648 ± 0.004
TGWRGVLGLGPG | 0.674 ± 0.02
THHQDGGRAAVR | 0.67913 ± 0.00062
THPLPAPAPLRP | 0.762 ± 0.027
THPPSLAPPRKA | 0.712 ± 0.0074
THVPPSPIPPIM | 0.675 ± 0.0099
THYFNIKCSQTK | 0.665 ± 0.013
THYSTQPKSTKC | 0.689 ± 0.027
TIGVTCSRLGRG | 0.685 ± 0.014
TIIGLVSANEYL | 0.582 ± 0.1

Sequence | protein stability index
TIKSATLVSFST | 0.671 ± 0.072
TILPDYTSRILA | 0.62 ± 0.012
TIRFWRSIFPHA | 0.728 ± 0.051
TISRRSCGPAQK | 0.6743 ± 0.0041
TKDRGRVYRQRG | 0.798 ± 0.051
TKERERAAGKKT | 0.7005 ± 0.0067
TKIKKKKNKKQE | 0.731 ± 0.0013
TKKETRDKKVER | 0.721 ± 0.0086
TKKIKTDTEENN | 0.701 ± 0.043
TKRKKKTQEGSR | 0.698 ± 0.045
TKRKKLEIGFLR | 0.625 ± 0.079
TKTCPMGVIEIC | 0.656 ± 0.0013
TKWYDSSKKTNK | 0.688 ± 0.075
TLDGEAILVIYI | 0.5944 ± 0.0051
TLENEKKKKRNT | 0.704 ± 0.084
TLGGRPFQGTPA | 0.698 ± 0.016
TLGYLPLRSLKI | 0.641 ± 0.046
TLIPPLLRNALP | 0.713 ± 0.0066
TLMLVTGLSTEV | 0.662 ± 0.01
TLPARTIHTTGH | 0.717 ± 0.028
TLPPPRPSPSSP | 0.689 ± 0.035
TLPSRSPAPLPH | 0.643 ± 0.021
TLRRPMQVPLGH | 0.633 ± 0.04
TLSLGCVDSHGV | 0.696 ± 0.036
TLTHKSVRLVVK | 0.57119 ± 0.00034
TLVNPFYRRFNL | 0.739 ± 0.03

Sequence | protein stability index
TLVSCRLVPSSR | 0.671 ± 0.056
TMFTISGWPLFG | 0.633 ± 0.044
TMTGSGRGEKWE | 0.733 ± 0.1
TNGPSVWYFLVL | 0.575 ± 0.052
TNNKKTRNHTSK | 0.704 ± 0.03
TNSGLGTGRRSA | 0.768 ± 0.02
TNSPTVSGCLQQ | 0.716 ± 0.07
TNSYRTSVRGER | 0.795 ± 0.013
TNTPVYRQAPQM | 0.657 ± 0.02
TPFLRGTDKTTP | 0.662 ± 0.068
TPLSDQLVPFGC | 0.708 ± 0.082
TPPALPPPSPPA | 0.68516 ± 0.00038
TPPATFCVPPPH | 0.719 ± 0.053
TPPLARPSPTAL | 0.534 ± 0.12
TPPPLPSPAPRP | 0.715 ± 0.062
TPPPSPPQPLPP | 0.642 ± 0.043
TPPVPPHPRSLL | 0.774 ± 0.11
TPQLSYYKGNNL | 0.639 ± 0.013
TPRPPPLPPRPP | 0.603 ± 0.029
TPRPPQPGLSRT | 0.67 ± 0.027
